Laboratory results from the RNAGym collection of RNA variant scans (doi:10.7554/elife.80360).

B1: Hairpin Ribozyme (parent)
chain: GUCCUCUUUCACGUGCGCGUGAAAGAGAGAAGUGAACCAGAGAAACACACGUUGUGGUAUAUUACCUGGUA

Variants of: B1
Assay: self-cleavage, relative activity (ratio to wild type); higher = more cleavage; co-transcriptional

Variant	self-cleavage
U67A A71C	0.381
G68C U70C	0.339
U70A A71C	1.21
U67A U70A	0.237
U67A U70G	0.186
G68A A71U	0.15
G69A A71U	0.152
G69A A71C	0.912
C66U A71C	0.757
U70C A71C	1.79
U70C A71U	1.64
C66A U67G	0.091
U67G A71G	0.208
U70A	0.926
U70G	0.844
U70C	0.924
G68A U70A	0.156
U67A G68A	0.115
U67A G68U	0.128
U67A G68C	0.157
G69A	0.407
G69U	0.243
G69C	0.289

Variant	self-cleavage
U67C A71U	0.224
U67G G68C	0.177
U67C G69A	0.178
C66G U67G	0.211
C66A G69A	0.268
G68C A71G	0.233
G68C A71C	0.436
C66U G69C	0.198
C66U G69U	0.187
C66U G69A	0.216
G68U A71C	0.329
G68U A71G	0.253
G69U U70C	0.304
G68U G69U	0.183
G68U G69A	0.3
U67G G69A	0.134
U67A G69A	0.116
C66U U67C	0.326
G69A U70C	0.387
G69A U70G	0.325
G69C A71G	0.316
G69C A71C	0.609
